From the DeepSol protein solubility set

experiment: soluble on expression in E. coli; label from the status in PepcDB or PDB records

| Sequence | soluble on expression in E. coli |
| --- | --- |
| MAGDPMWKTDVKLNADKFRKIDVHSHIQVLGYPFNVSITPQEFLSLMEAYNIEVAIISDVDNENIAKIVREYPDKLVGIYWANPRDKNSIKEAEKFLEKFEFRGIKLHPLLNMFSPADPKVEDIMRIAEEFNVHVQVHSGHPPTSLPWQIEELARKFPEVKIVMVHMGHGNAYYIQGAIEVAERNENVYLETSGMPMPSKIAEAYKVAPKRVVFGIDLPCHHPVVEIAKVLTSGLDEKGMERVFYENAKVLLLEHHHHHH | not soluble |
| MAHHHHHHMEFLVADAERMYTVNGRLQHLSYWSYKILARSFLESYQNPPLLNSNRAAQNFSKGSGYVDFCTWHRYSEFEWLAAQVELEFPGMLFPPIPSKETDGTVDKFTELLTSVKENNSTTRENPLVKKRMRHLQLTFNAIAQLHELHESPLLKAFVTLDELSWCAFREEREKKMKTSILTIFKAKGLSIIAKLRSFRESSNHDYTLDSPLDSVATRQSDLGELLNTCFAQVEYINKYCISEWRHWSDVNKLRGSIQGSPMPWTACYGGHHVQHSKHPGLEGVVREINNDAAVVEWNGQGGKLSKVPLDELNYPSSGISDPAIFALQELASQVESYFMYLSRSSGVAVLRDVEDLLWFLSSYANRCVRVIRRFREMRSEVRYLTRVVEKKASVEQFEQLERLKQILSKGTSRFMEQYNNFYRCFMRNSLMEVAHKFGRVITVIMSDDQWNERLSVAKTMLTLSLPLLPEEREEIFAEDASKRDSPPMKQVNGLEG | soluble |
| MTSVDCTAYGPELRALAARLPRTPRADLYAFLDAAHTAAASLPGALATALDTFNAEGSEDGHLLLRGLPVEADADLPTTPSSTPAPEDRSLLTMEAMLGLVGRRLGLHTGYRELRSGTVYHDVYPSPGAHHLSSETSETLLEFHTEMAYHRLQPNYVMLACSRADHERTAATLVASVRKALPLLDERTRARLLDRRMPCCVDVAFRGGVDDPGAIAQVKPLYGDADDPFLGYDRELLAPEDPADKEAVAALSKALDEVTEAVYLEPGDLLIVDNFRTTHARTPFSPRWDGKDRWLHRVYIRTDRNGQLSGGERAGDVVAFTPRG | soluble |
| MTLFEPSTSGNRMGYRGSSNSSSGVGSGGSGSLMTQSIGGPNKHLSASHSTLNTASTHDMMHSKIPKSPSNESLSRSHTSSSGGSQGGHNSNSGSNSGFRPEDAVQTFGAKLVPFEKNEIYNYTRVFFVGSHAKKQAGVIGGANNGGYDDENGSYQLVVHDHIAYRYEVLKVIGKGSFGQVIKAFDHKYQQYVALKLVRNEKRFHRQADEEIRILDHLRRQDSDGTHNIIHMLDYFNFRNHKCITFELLSINLYELIKRNKFQGFSLMLVRKFAYSMLLCLDLLQKNRLIHCDLKPENVLLKQQGRSGIKVIDFGSSCFDDQRIYTYIQSRFYRAPEVILGTKYGMPIDMWSLGCILAELLTGYPLLPGEDENDQLALIIELLGMPPPKSLETAKRARTFITSKGYPRYCTATSMPDGSVVLAGARSKRGKMRGPPASRSWSTALKNMGDELFVDFLKRCLDWDPETRMTPAQALKHKWLRRRLPNPPRDGLESMGGLADHEVCFIIF | not soluble |
| MDAQTFKTAIVRRRLVDVLMNPELKATLVLKNGLVINVVTREIYPADVAVYDEYILKVGDASDLIGPETEVVDLQGKYYVSPGFIDSHMHFESSMLTISEFSRLSIPSGTTTLVADPHEIGNALGPVGIKAMAEETKVVPNRVYLVVPALTPDCPGLETAGYDITSRDMPEILNYPNVIGIGELQGFSNAKYVYKYTPEIITDLIASTTYAKSIGKIVDGNAPELFGSELAAHLIAAGTEASCHETTTKEECVEKLRYGMYVFMREGSTQKNMAECIRAVTEEGLDSRRLIGATDDMVAEDLAKNGHMNWVVARIIKQGIDPVEAIQMVTINPATYFGLKHVGVLAPGKMADIVVISDLMDMKVEKVYIGGKLVAEKGKMVVNIPKYTYPEEVKHSVKCKPVTAEALEIKATGSNAVVRTIGLIPDQNLTESFEFTVPVSGGVAQPDLTQDVLPIAVVERYGRNGSIGRAFVRGFGLKGGAFAESVSHDAHNIIVVGTSYQDMALAVNRVIEMGGGVAVVKNGRVLGDLRLPVGGLITDELDGYELSRKIAELHRLTAVELGCTVHAPFMHLSFLALTTSPKWKITDQGLIDVNSFAIIPPVK | soluble |
| METTVMPAAASVQKQQGLNQVVINKVQRMIESRQGGVMDTINRLLSEGRIAQDFIAPIGVSQRSKERPVISFKAEGRVQMAMPEGNFNLHGNAISQISEKMGIPAKYLRELSAGDVWQKQLCATILNEHSGWTERTRVLIRAVGMEVRGVLSDSYRRLNSVDILTAFIREAGGQGAVVSDAYMNDTKVWCETILPTPIEIPTRKNGTVIIFAGARFSTSDYGNGSVEMRSFLLNGACLNGMVRESVMRQIHLGGRLPESLSLSQKTYELDTQTTVSAVSDLTKGLYSKDTIMQKAIEIQGASEIDVDFDKELKNLVQKGALLKNEGREVEKLLMNNNPDDGVTGGATLWKLTQGITAFAREQQPERCRELHEISGQLMNRVKIN | not soluble |
| GCDLERYPLTDLSEETFWNSESNAELALTSLYRGSLTDGVEYNPSDWWSYHGMIMMEHLSDNAFDRRGENNPFFKISSGNLTADNAFIKRYWETSYKRIGYCNRFLVGIQNSSESEKKTRMIAEARFLRATQYFYLASYFKNVPLVENVLTGEEANNVTKTSQADILKWCVTEFTAAAADLPRFSAIPAGEAGRACKQAALAFLGRTCMLQKDWKSGAKAFHDIMELGDNAINANYQELFYPSTGTSNKENIFYIQYLENYLGTGLPQHALSAKDGGWSLVNPAADLYESYEFKDGTPFSYDDPRYDPSNLGKDRDPRLDYTIYYNGAIFMGTEYKMSPDYSAAKKEKLDYTSEASRTGFMMRKYFEESTPINDVQSANGLTPVIRYAEVLLGYLECLVEDNQTITQGILDETINAVRGRASVNMPPVTEVTPAKLREIVRHERRIELAMEGIRYWDIMRWGIAHEVLSQKIWGAPYPGSTQYATTTKEVDPTGNYRWYVGKRAFRNPTDYTWPIPQSEQNINPNLRD | soluble |
| MRKGCFGLVSLVLLLLVGCRSHPEIPVNDEQSLVMESSLLAAGISAEKPFLSTSDIQPSASSTLYNERQEPVTVHYRFYWYDARGLEMHPLERPRSVTIPAHSAVTLYGSANFLGAHKVRLYLYLLEHHHHHH | soluble |
| MAHHHHHHMGKKRFYAVAVGRQTGVFSTWEECQKQVSGFSGARFKSFLTLQEAQAYASGVQDVEPGSVGTSLVADSHTPVLVGVKRALSLDVTLDAVEVDAADDGNEVDDESKQQVLSPEWVEARKREAVVVYVDGACRNNGSRSRERRPRAGFGGFYGDGDSRNFKFPLPAHEPQTNQRAELSALIHVLRVALDSHPCYNLCVYSDSKYTVMGVNSYLHRWERNGFKTAGGGDVANIDLWSQLTKLRNRHLSRCAERFTMEFRFKASLAAIAARAVALQLKHVPGHAGVYGNEMADRLAVEACESPFG | not soluble |
| MSQQKIGVLLVNLGTPEHPTAPAIRKFLKPFLADSRVIDYPKFLWKPILYSFILPFRPRKVKPLYQHVWTNEGSPLYANAIGQEKALQAHFDQSEHGVLVRATMAYSKPSISDVVDEFLKEKVAKMIVLPLFPQYSSTTTAAIFDAFAQSLKKKKDIPPFDFIHHYYERPSYIQALAQTIHLQENEHLLFSFHGIPQRYVIEGDYYTEHCQQTAQLIAVAAGLSEEQWQVSYQSRFGPEEWTRPYTDETLIQLPKQGKKKLAVICPGFAADCLETLEEIDITNRKHFMAAGGQAYRYIPALNASPAHIQLLAELISERL | not soluble |
| MSERRIDVNRSNYSVIDNEFGNMRDRFEQEMRRVEEEMKRLRSEFEGYRPNGGPPAAISNQPYNAYSNTSSHHETSNRTGGFGSPLPPPSFHGPSDLMAHRPTYDPYLDNLKSPLIKDESDGKTLRLRFDVANYKPEEVTVKTIDNRLLVHAKHEEKTPQRTVFREYNQEFLLPRGTNPEQISSTLSTDGVLTVEAPLPQLAIQQ | not soluble |
| GPGSMLDRLSCLGPRTKRWLHNNLRGRYVRVCTREQHSRKQLTPAGGPQGSALRPQLFLHCVDDLLRRMDNIYSASALMYADDLTVVASGAGTHACAAAMPPALSLITAWAAEHNHKINVDKSEAALFHISSHTRSDDEMVNLHLGNGKLRIQSRPVRLLDTTMDQLLNFDYARFHRFK | not soluble |
| EVLPNFAENARPIEGKKPYTVLQLAGRAVYIKDSCNACHSQLIRPFKSETDRYGMYSVSGEFAYDRPFLWGSKRTGPDLARVGNYRTADWHENHMWDPTSVVPDSIMPSYKHMFKNNADIETAYAEALTVKKVFNVPYDAENGTKLGSWEDAQAEVKAEAQAIVDQMKNQEVKDAFAKGEIKEIVALIAYLNSLK | not soluble |
| MLIQKAYKYRLYPTDQQAQRLRQLCGCARFVWNYALNETLSIHDAGGKIPSAFDLNKRLTGWKKLPELAFLSEGYTDNLQQKLKDLRSAWDRCFDKSLTAEKPVFKKKTKGCDSIRFVNFSKYCGLDYGRVKLPSGLGWVKFRQSRKIEGVIKNCTISQHAGHWYVSFQVELAVTDPIHASTSAIGLDAGITKLATLSDGTVFEPVNSLKKNQDKLARLQRRLARMVKFSANWKKQKAKISRFHSHIANIRRDYLHKTTTTISKNHAMIVIEDLKVSNMSKSAAGTVDQPGRNVAAKSGLNRAILDQGWAEMRRQLEYKQAWRGGDVLAINPAYTSQKCACCGHTSKNNRRTQASFICTACGYTANADVNGARNILTAGFEVMAAGQILPSVRKGRARKAA | not soluble |
| MWLSGARLVLPDRVLTEGSLRLEGERIAEVREGFVPSGMDLRGFTVVPGLVDLHGDSLERELEPRPGVRLPLELALPSWELRQLAAGITTVYATVAFWEGAGGVREPDQGLRLAQELWGLRSALHVDLRIHARYEVSRPQGEPAVREALRKGWVHLLSFMDHTPGQGQFHDLETYVRYMARHHGRPEAEVYDEVKRLSTRATWEGLEALAAEALAKSIPLASHDDDTPDRVALMARLGVTVSEFPVRLEAAKEAKVRGMTVVMGAPNALRGGSHHGNLSALDALREGLLDALATDYLPEAALRAPFRLAAQGLLDLPLALALVTRRPALAVGLADRGALAPGLRADLVVLKESPFSVLGAFVAGKPVFVGGELAHALA | soluble |
| MSLINAGITTVGEFHYVHHSEQKFDLDQLVIQAAIDAGIRIVLLQTLYERAGFDSPAVHPVQERFIASYEDFIGNLEKLRKEKTHERVQIGVAAHSARAVPFENIKKLFEYASEHKIPFHIHLEEQPKEIFDCQKFIGQKQGPSDLILSKMHLNEYFTAVHSTFTPANNMLLFSKLGANVSICPCTEGYLGDGIPRINESLKISFGTDCNNRICFLEEMRWACFSQQMLNNSRSVCGLSPEKLLLCATIDGARALSLTSKTGSLEVGKYFDAISFSLDSPLLENSLADTLIDSLVLSAGNREISNVFVSGVDRKTEGHHHHHH | not soluble |
| MAHHHHHHMTETVLRLGPQEYAHLTNLNTNTTELILGPLNRPVASHESVALPPTKFVVVPPTQYCLIANPHRTAVDPTTGIAQPVRDAYGQVQVRSGEEEYRWHVPPFPLYPEEAVVKLEDLKVLSARAALQIQVLAAYNVPACSASDSMPSPVRREAGERYSSAAPAPTTLALRSTSRRR | soluble |
